Measurements reported in patent publication US20150023971A1.

Key:
[1] = molecular target: T1, …; assay: SPOT length analysis, dot 4, HRP-S-protein detection
T1 sequence (peptide): RIFRSSDFAKNFVQ

[2] = molecular target: T2, …; assay: SPOT length analysis, dot 15, HRP-S-protein detection
T2 sequence (peptide): SSDFAKNFVQTD

[3] = molecular target: T3, …; assay: SPOT length analysis, dot 16, HRP-S-protein detection
T3 sequence (peptide): RIFRSSDFAKN

[4] = molecular target: T4, …; assay: SPOT length analysis, dot 21, HRP-S-protein detection
T4 sequence (peptide): SDFAKNFVQTD

[5] = molecular target: T5, …; assay: SPOT length analysis, dot 22, HRP-S-protein detection
T5 sequence (peptide): RIFRSSDFAK

[6] = molecular target: T6, …; assay: SPOT length analysis, dot 27, HRP-S-protein detection
T6 sequence (peptide): SDFAKNFVQT

[7] = molecular target: T7, …; assay: SPOT length analysis, dot 29, HRP-S-protein detection
T7 sequence (peptide): RIFRSSDFA

[8] = molecular target: T8, FRSSDFAK; assay: SPOT length analysis, dot 39, HRP-S-protein detection
T8 sequence (peptide): FRSSDFAK

[9] = molecular target: T9, FAKNFVQ; assay: SPOT length analysis, dot 53, HRP-S-protein detection
T9 sequence (peptide): FAKNFVQ

[10] = molecular target: T10, AKNFVQT; assay: SPOT length analysis, dot 54, HRP-S-protein detection
T10 sequence (peptide): AKNFVQT

[11] = molecular target: T11, KNFVQTD; assay: SPOT length analysis, dot 55, HRP-S-protein detection
T11 sequence (peptide): KNFVQTD

[12] = molecular target: T12, KNFVQT; assay: SPOT length analysis, dot 65, HRP-S-protein detection
T12 sequence (peptide): KNFVQT

[13] = molecular target: T13, IFRSS; assay: SPOT length analysis, dot 68, HRP-S-protein detection
T13 sequence (peptide): IFRSS

[14] = molecular target: T14, FRSSD; assay: SPOT length analysis, dot 69, HRP-S-protein detection
T14 sequence (peptide): FRSSD

[15] = molecular target: T15, KNFVQ; assay: SPOT length analysis, dot 76, HRP-S-protein detection
T15 sequence (peptide): KNFVQ

[16] = molecular target: T16, SDFA; assay: SPOT length analysis, dot 84, HRP-S-protein detection
T16 sequence (peptide): SDFA

[17] = molecular target: T17, DFAK; assay: SPOT length analysis, dot 85, HRP-S-protein detection
T17 sequence (peptide): DFAK

[18] = molecular target: T18, …; assay: SPOT length analysis, dot 9, anti-histidine detection
T18 sequence (peptide): FRSSDFAKNFVQT

[19] = molecular target: T19, VQTD; assay: SPOT length analysis, dot 91, HRP-S-protein detection
T19 sequence (peptide): VQTD

[20] = molecular target: T20, …; assay: SPOT length analysis, dot 12, anti-histidine detection
T20 sequence (peptide): IFRSSDFAKNFV

[21] = molecular target: T2, …; assay: SPOT length analysis, dot 15, anti-histidine detection
[22] = molecular target: T21, …; assay: SPOT length analysis, dot 18, anti-histidine detection
T21 sequence (peptide): FRSSDFAKNFV

[23] = molecular target: T22, sortilin peptide … on SPOT membrane; assay: SPOT length analysis, dot 36, anti-histidine detection
T22 sequence (peptide, C-terminus anchored to the cellulose membrane through a beta-alanine linker): FAKNFVQTD

[24] = molecular target: T23, RSSDFA; assay: SPOT length analysis, dot 59, anti-histidine detection
T23 sequence (peptide): RSSDFA

[25] = molecular target: T24, DFAKNF; assay: SPOT length analysis, dot 62, anti-histidine detection
T24 sequence (peptide): DFAKNF

[26] = molecular target: T25, RSSDF; assay: SPOT length analysis, dot 70, anti-histidine detection
T25 sequence (peptide): RSSDF

[27] = molecular target: T26, SSDFA; assay: SPOT length analysis, dot 71, anti-histidine detection
T26 sequence (peptide): SSDFA

[28] = molecular target: T27, DFAKN; assay: SPOT length analysis, dot 73, anti-histidine detection
T27 sequence (peptide): DFAKN

[29] = molecular target: T28, FAKNF; assay: SPOT length analysis, dot 74, anti-histidine detection
T28 sequence (peptide): FAKNF

[30] = molecular target: T29, FRSS; assay: SPOT length analysis, dot 81, anti-histidine detection
T29 sequence (peptide): FRSS

[31] = molecular target: T30, RSSD; assay: SPOT length analysis, dot 82, anti-histidine detection
T30 sequence (peptide): RSSD

[32] = molecular target: T17, DFAK; assay: SPOT length analysis, dot 85, anti-histidine detection
[33] = molecular target: T31, FAKN; assay: SPOT length analysis, dot 86, anti-histidine detection
T31 sequence (peptide): FAKN

[34] = molecular target: T32, sortilin 4-mer peptide RIFR (length analysis); assay: SPOT length analysis, dot 79, HRP-S-protein detection
T32 sequence (peptide, C-terminus anchored to the cellulose membrane through a beta-alanine linker): RIFR

[35] = molecular target: T33, sortilin peptide … (synthetic, soluble); assay: SPOT length analysis, dot 11 (peptide here cellulose-bound), anti-histidine detection
T33 sequence (peptide): RIFRSSDFAKNF

B1: recombinant his-S-tagged pro-domain of human BDNF (residues Ala1-Arg110), from pET-30 Xa/LIC, E. coli (protein, not shown: small tags and cut ends)
chain: APMKEANIRGQGGLAYPGVRTHGTLESVNGPKAGSGLTSLADTFEHVIEELLDEDQKVRPNEENNKDADLYTSRVMLSSQVPLEPPLLFLLEEYKNYLDAANMSMRVRR
- BLU Sprotein [1]: 172000 BLU
- BLU Sprotein [2]: 22400 BLU
- BLU Sprotein [3]: 63600 BLU
- BLU Sprotein [4]: 16900 BLU
- BLU Sprotein [5]: 60500 BLU
- BLU Sprotein [6]: 19100 BLU
- BLU Sprotein [7]: 60900 BLU
- BLU Sprotein [8]: 19200 BLU
- BLU Sprotein [9]: 20300 BLU
- BLU Sprotein [10]: 16700 BLU
- BLU Sprotein [11]: 16800 BLU
- BLU Sprotein [12]: 14300 BLU
- BLU Sprotein [13]: 38500 BLU
- BLU Sprotein [14]: 15000 BLU
- BLU Sprotein [15]: 15700 BLU
- BLU Sprotein [16]: 13300 BLU
- BLU Sprotein [17]: 13300 BLU
- BLU His [18]: 19700 BLU
- BLU Sprotein [19]: 13800 BLU
- BLU His [20]: 45100 BLU
- BLU His [21]: 19200 BLU
- BLU His [22]: 19400 BLU
- BLU His [23]: 30800 BLU
- BLU His [24]: 18300 BLU
- BLU His [25]: 15200 BLU
- BLU His [26]: 16100 BLU
- BLU His [27]: 15800 BLU
- BLU His [28]: 17800 BLU
- BLU His [29]: 31900 BLU
- BLU His [30]: 20100 BLU
- BLU His [31]: 15000 BLU
- BLU His [32]: 14400 BLU
- BLU His [33]: 15200 BLU
- BLU Sprotein [34]: 166000 BLU
- BLU His [35]: 100000 BLU
